The text below walks through data of patent US20240158474A1 (SINO BIOLOGICAL, published 2024).

The target of one assay is T1, HPV56 VLP protein (human papillomavirus type 56, UniProt P36743 36-507).
T1 construct: Complete VLP protein; no limits of the construct printed, whole entry named; also called HPV56L1
T1 sequence: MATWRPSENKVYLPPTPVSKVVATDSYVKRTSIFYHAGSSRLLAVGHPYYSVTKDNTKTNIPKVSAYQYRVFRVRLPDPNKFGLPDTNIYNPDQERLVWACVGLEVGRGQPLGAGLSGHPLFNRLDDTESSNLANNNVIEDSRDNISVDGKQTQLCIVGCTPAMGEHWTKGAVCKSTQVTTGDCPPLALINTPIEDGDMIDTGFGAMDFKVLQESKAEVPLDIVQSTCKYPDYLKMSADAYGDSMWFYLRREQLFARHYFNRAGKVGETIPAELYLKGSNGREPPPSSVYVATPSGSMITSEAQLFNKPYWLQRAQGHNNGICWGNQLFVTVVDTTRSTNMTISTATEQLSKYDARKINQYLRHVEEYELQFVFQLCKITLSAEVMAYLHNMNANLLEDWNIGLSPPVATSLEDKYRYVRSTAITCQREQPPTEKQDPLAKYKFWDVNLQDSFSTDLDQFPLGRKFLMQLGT
Description: indirect ELISA on coated VLP.

The target of a further assay is T2, HPV11 VLP protein (human papillomavirus type 11; human …, UniProt P04012 1-470; P06416 474-499).
T2 construct: range 1-470;range 474-499; Complete VLP protein used as coating protein
T2 sequence: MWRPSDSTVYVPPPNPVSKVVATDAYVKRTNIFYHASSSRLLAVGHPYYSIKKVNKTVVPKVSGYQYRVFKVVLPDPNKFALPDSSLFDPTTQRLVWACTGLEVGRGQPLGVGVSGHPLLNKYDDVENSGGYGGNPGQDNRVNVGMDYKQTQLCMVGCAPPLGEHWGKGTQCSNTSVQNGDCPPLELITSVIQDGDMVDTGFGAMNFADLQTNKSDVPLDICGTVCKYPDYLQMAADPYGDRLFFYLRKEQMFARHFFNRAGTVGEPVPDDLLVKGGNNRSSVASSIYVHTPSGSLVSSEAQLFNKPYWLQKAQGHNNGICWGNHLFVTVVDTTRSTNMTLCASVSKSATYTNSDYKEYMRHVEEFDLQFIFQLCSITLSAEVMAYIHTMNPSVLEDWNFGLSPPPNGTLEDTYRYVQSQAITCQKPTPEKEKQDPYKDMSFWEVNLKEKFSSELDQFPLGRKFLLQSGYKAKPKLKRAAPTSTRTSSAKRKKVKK
Description: indirect ELISA on coated VLP. (An ELISA detects its analyte on a solid surface through an enzyme-linked reagent.)

B1: monoclonal antibody HPV6-R003 (antibody, V domains shown)
VH: QQQLEESGGGLVKPGGTLTLTCKASGIDLSNYYMCWVRQAPGKGLEWIGCIYTGSGRTYYASWAKGRFTISKASSTTVTLQMTSLTAADTATYFCARDYLGWRASNIWGPGTLVTVSS
VL: ELVMTQTPSSVSAAVGGTVTINCQASQSVYSNNLVWYQQKPGQPPKLLIYGASTLASGVPSRFKGSGSGTQFTLTISDVVCDDAATYYCGGYVSDSTDGTAFGGGTEVVVKG
notes: here built from variable plus constant region so that the signal peptides are left out; In the sandwich ELISA the same antibody is used as coating antibody and, labelled with horseradish peroxidase, as detection antibody; also called anti-HPV6 L1 protein antibody
B1: the binding result with HPV56 VLP protein and in the assay with HPV11 VLP protein was “no binding (tested: antibody 10 ng/mL; coating 2 µg/mL)” in each case.
